In patent publication US12006373:

Target: human CD3ε expressed on Jurkat T cells (clone E6-1) as part of TCR-CD3 complexes (human) (UniProt P07766)
Assay: cell-based or functional assay

Chain of human CD3ε expressed on Jurkat T cells (clone E6-1) as part of TCR-CD3 complexes (human) (P07766 23-207, one chain of several): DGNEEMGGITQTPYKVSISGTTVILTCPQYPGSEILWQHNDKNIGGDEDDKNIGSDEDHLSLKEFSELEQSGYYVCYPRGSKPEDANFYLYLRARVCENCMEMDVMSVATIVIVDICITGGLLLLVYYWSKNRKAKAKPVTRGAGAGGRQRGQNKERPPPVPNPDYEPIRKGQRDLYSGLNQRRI

Question: Which expansion of Jurkat cells during 48 hours of culture (hemocytometer count) does the source give for “biotin anti-human CD3ε (OKT3) antibody coated on M280 streptavidin Dynabeads” here?
Answer: 1.9 times
